Results from patent publication US11053304 (CENTIVAX, dated 2021).
Like-named read-outs stand apart in the source and are kept apart here.

Experiments:
Assay in all cases: SPR, scFv captured via anti-V5, RBD as analyte
[1] = target: MERS Receptor Binding Domain (RBD) protein (MERS coronavirus, UniProt K9N5Q8 367-606)
[2] = target: T1, SARS-CoV-2 Receptor Binding Domain (RBD) protein (SARS-CoV-2, UniProt P0DTC2 319-541)
[3] = target: SARS-CoV-1 Receptor Binding Domain (RBD) protein (SARS-CoV-1, UniProt P59594 306-527)
[4] = target: T1, SARS-CoV-2 Receptor Binding Domain …; remark: listed apart in the source

Binder	binding result [1]	Kd [2] [nM]	binding result [3]	Kd [4] [nM]	koff [4] [s⁻¹]	kon [4] [M⁻¹ s⁻¹]
COVID19_P08_F04 (scFv, V domains shown) VH: EVQLVESGGGLVQPGGSLRLSCAASGFRFDDFGMHWYRQAPGKGLEWVSATSGGGSITYYADSVKGRFTISRDNSKNTLYLQMNSLRAEDTAVYYCVTNMDNSRDYFPHYFHDMDVWGQGTLVTVSS VL: not shown	no binding (tested: up to 300 nM)	< 50	no binding (tested: up to 300 nM)	2.04	0.00019	93000
COVID19_P07_G02 (scFv, V domains shown) VH: EVQLVESGGGLVQPGGSLRLSCAASGFRFNTYAMHWVRQAPGKGLEWVAVISSSGRNKFYADSVKGRFTISRDNSKNTLYLQMNSLRAEDTAVYYCVTNMDNSRDYFPHYFHDMDVWGQGTLVTVSS VL: not shown	no binding (tested: up to 300 nM)	< 50	no binding (tested: up to 300 nM)	4.8	5.7e-05	11900
COVID19_P19_C07 (scFv, V domains shown) VH: EVQLVESGGGLVQPGGSLRLSCAASGFPFSLYGMHWVRQAPGKGLEWVAVITSDGRSKFYADSVKGRFTISRDNSKNTLYLQMNSLRAEDTAVYYCVTNLDNSRDYFPHYFHDMDVWGQGTLVTVSS VL: not shown	no binding (tested: up to 300 nM)	< 50	no binding (tested: up to 300 nM)	3.6	5.7e-05	16000
COVID19_P08_B12 (scFv, V domains shown) VH: EVQLVESGGGLVQPGGSLRLSCAASGFSFRSYGMHWVRQAPGKGLEWVAVISSDGRNKFYADSVKGRFTISRDNSKNTLYLQMNSLRAEDTAVYYCVTNFDNSRDYFPHYFHDMDVWGQGTLVTVSS VL: not shown	no binding (tested: up to 300 nM)	< 50	no binding (tested: up to 300 nM)	3.5	5.7e-05	16000
